Residue numbers refer to the chain shown, from its start. Names may count otherwise. Values belong to the molecule of their own block, whether it stands above or below them.
Key:
CD28 [1] = target: T1, CD28 (human, UniProt P10747 19-220); test: flow cytometry, 11 nM Fc fusion on Jurkat cells
CTLA-4 [2] = target: T2, CTLA-4 (human, UniProt P16410 36-223); test: flow cytometry, 11 nM Fc fusion on CHO/CTLA4 transfectants
T2 construct: CHO cells transduced to stably express CTLA-4; also called huCTLA; CHO/CTLA-4
T2 sequence: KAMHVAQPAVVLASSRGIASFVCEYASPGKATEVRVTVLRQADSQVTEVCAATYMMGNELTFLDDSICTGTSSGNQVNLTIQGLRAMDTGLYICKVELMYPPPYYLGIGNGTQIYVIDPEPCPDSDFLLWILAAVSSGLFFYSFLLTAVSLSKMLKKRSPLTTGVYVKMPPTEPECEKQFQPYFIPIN

PD-L1 = target: T3, PD-L1 (human, UniProt Q9NZQ7 19-290); test: flow cytometry, K562 cells transduced to express PDL1, anti-Fc antibody-PE
T3 construct: also called huPD-L1
Method: (§1) To assess binding activity, the exemplary formatted stack constructs were incubated with Jurkat cells expressing CD28, the cognate binding partner of CD86, and with K562 cells transduced to express PDL1, the cognate binding partner of PD-1. The cells (50,000 cells/well) were incubated on ice for 30 min with the formatted stack constructs set forth in Table E7 at various concentrations (starting concentration 100 nM, 8 serial 1:4 dilutions titrated down). Cells were then washed with FACS buffer and resuspended with 50 μL anti-Fc antibody-PE for 30 min. Binding was assessed by flow cytometry and Mean Fluorescence Intensity (MFI) was determined.

CD28 [3] = target: T1, CD28; test: flow cytometry, Jurkat cells expressing CD28, anti-Fc antibody-PE
Method: as §1

CD28 [4] = target: T1, CD28; test: flow cytometry, 25 nM Fc fusion on Jurkat cells
Method: (§2) Binding of the CD86 domain variants described above were assayed for binding to CD28 using Jurkat cells or to CTLA-4 using Chinese Hamster Ovary (CHO) cells that were transduced to stably express CTLA-4 (CHO/CTLA-4). For staining by flow cytometry, approximately 100,000 ligand-expressing cells were incubated with various concentrations of each candidate CD86 variant Fc fusion protein. […] To assess binding, cells were stained with an anti-human Fc secondary antibody (Jackson ImmunoResearch, USA), and samples were analyzed on an LSRII (BD Biosciences, Inc., USA) flow cytometer.
(§3) In the Table, the exemplary amino acid substitutions and insertions in the IgV domain are designated by amino acid position number corresponding to amino acid positions in the respective reference unmodified mature CD86 extracellular domain (ECD) sequence set forth in SEQ ID NO:29. The amino acid position is indicated in the middle, with the corresponding unmodified (e.g. wild-type) amino acid listed before the number and the identified variant amino acid substitution listed after the number. Column 2 sets forth the SEQ ID NO identifier for each variant IgV domain contained in the variant IgV-Fc fusion molecule.

CTLA-4 [5] = target: T2, CTLA-4; test: flow cytometry, 25 nM Fc fusion on CHO/CTLA4 transfectants
Method: as §2, §3

CD28 [6] = target: T1, CD28; test: cell-based or functional assay

T3 sequence (Q9NZQ7 19-290): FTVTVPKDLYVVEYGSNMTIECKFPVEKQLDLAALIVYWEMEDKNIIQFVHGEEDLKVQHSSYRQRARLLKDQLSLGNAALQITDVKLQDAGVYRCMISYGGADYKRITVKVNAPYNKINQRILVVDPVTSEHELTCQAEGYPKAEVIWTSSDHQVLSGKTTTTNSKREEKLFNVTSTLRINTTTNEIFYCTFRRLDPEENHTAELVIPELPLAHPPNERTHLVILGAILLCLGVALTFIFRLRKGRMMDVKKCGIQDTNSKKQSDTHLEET
T1 sequence (P10747 19-220): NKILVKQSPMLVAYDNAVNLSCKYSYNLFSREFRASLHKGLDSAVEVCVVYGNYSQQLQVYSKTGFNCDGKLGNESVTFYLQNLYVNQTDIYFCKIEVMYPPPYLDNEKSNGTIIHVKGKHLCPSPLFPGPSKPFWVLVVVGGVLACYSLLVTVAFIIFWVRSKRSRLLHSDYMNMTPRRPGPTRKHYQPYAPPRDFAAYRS

B1: formatted PD-1-CD86 stack, FIG. 14A format, SEQ ID NO: 326 homodimer (Fc fusion)
chain: DSPDRPWNPPTFSPALLVVTEGDNATFTCSFSNTSESFVLNWYRMSPSNQTDKLAAFPEDRNQPGQDRRFRVTQLPNGRDYHMSVDRARRNDSGTYLCGAITLAPKVQIDESLRVELRVTERGSGGGGSEPKSSDKTHTCPPCPAPEAEGAPSVFLFPPKPKDTLMISRTPEVTCVVVDVSHEDPEVKFNWYVDGVEVHNAKTKPREEQYNSTYRVVSVLTVLHQDWLNGKEYKCKVSNKALPAPIEKTISKAKGQPREPQVYTLPPSRDELTKNQVSLTCLVKGFYPSDIAVEWESNGQPENNYKTTPPVLDSDGSFFLYSKLTVDKSRWQQGNVFSCSVMHEALHNHYTQKSLSLSPGGGGGSGGGGSGGGGSGGGGSAPLKIQAYFNETADLPCQFANSQNLSLSELVVFWQDQENLVLNEVYLGKEKFDSVHSKYMGRTSFDSDSWTLRLHNLQIKDKGLYRCIILHKKPTGMIRIHQMSSELSVLANFSQPEIVPISNITENVYINLTCSSIHGYPEPKKMSVLLRTKNSTIEYDGVMQKSQDNVTELYDVSISLSVSFPDVTSNMTIFCILETDKTRLLSSPFSIELEDPQPPPDHIP
notes: also called variant PD1 ECD - Fc - variant CD86 ECD
binding result (PD-L1): binds | binding result (CD28 [3]): binds

B2: formatted PD-1-CD86 stack, FIG. 14A format, SEQ ID NO: 327 homodimer (Fc fusion)
chain: DSPDRPWNPPTFSPALLVVTEGDNATFTCSFSNTSESFVLNWYRMSPSNQTDKLAAFPEDRNQPGQDRRFRVTQLPNGRDYHMSVDRARRNDSGTYLCGAITLAPKVQIDESLRVELRVTERGSGGGGSEPKSSDKTHTCPPCPAPEAEGAPSVFLFPPKPKDTLMISRTPEVTCVVVDVSHEDPEVKFNWYVDGVEVHNAKTKPREEQYNSTYRVVSVLTVLHQDWLNGKEYKCKVSNKALPAPIEKTISKAKGQPREPQVYTLPPSRDELTKNQVSLTCLVKGFYPSDIAVEWESNGQPENNYKTTPPVLDSDGSFFLYSKLTVDKSRWQQGNVFSCSVMHEALHNHYTQKSLSLSPGGGGGSGGGGSGGGGSGGGGSAPLKIQAYFNETADLPCQFANSQNLSLSELVVFWQDQENLVLNEVYLGKEKFDSVHSKYMGRTSFDSDSWTLRLHNLQIKDKGLYRCIILHKKPTGMIRIHQMSSELSVLA
notes: also called variant PD1 ECD - Fc - variant CD86 IgV
binding result (PD-L1): binds | binding result (CD28 [3]): binds

B3: formatted PD-1-CD86 stack, FIG. 14D format (heterodimer SEQ ID NOs 328 + 331) (Fc fusion)
chain 1: DSPDRPWNPPTFSPALLVVTEGDNATFTCSFSNTSESFVLNWYRMSPSNQTDKLAAFPEDRNQPGQDRRFRVTQLPNGRDYHMSVDRARRNDSGTYLCGAITLAPKVQIDESLRVELRVTERGSGGGGSEPKSSDKTHTCPPCPAPEAEGAPSVFLFPPKPKDTLMISRTPEVTCVVVDVSHEDPEVKFNWYVDGVEVHNAKTKPREEQYNSTYRVVSVLTVLHQDWLNGKEYKCKVSNKALPAPIEKTISKAKGQPREPQVYTLPPCREEMTKNQVSLWCLVKGFYPSDIAVEWESNGQPENNYKTTPPVLDSDGSFFLYSKLTVDKSRWQQGNVFSCSVMHEALHNHYTQKSLSLSPG
chain 2: B2 chain with Y263C, D270E, L272M, T280S, L282A, Y321V
notes: Knobs-into-hole heterodimer
binding result (PD-L1): binds | binding result (CD28 [3]): binds

B6: variant CD86 IgV-Fc Q25L/Q86R/H90L (IgV SEQ ID NO: 126) (Fc fusion)
chain: APLKIQAYFNETADLPCQFANSQNLSLSELVVFWQDQENLVLNEVYLGKEKFDSVHSKYMGRTSFDSDSWTLRLHNLQIKDKGLYRCIILHKKPTGMIRIHQMNSELSVLAGSGGGGSEPKSSDKTHTCPPCPAPEAEGAPSVFLFPPKPKDTLMISRTPEVTCVVVDVSHEDPEVKFNWYVDGVEVHNAKTKPREEQYNSTYRVVSVLTVLHQDWLNGKEYKCKVSNKALPAPIEKTISKAKGQPREPQVYTLPPSRDELTKNQVSLTCLVKGFYPSDIAVEWESNGQPENNYKTTPPVLDSDGSFFLYSKLTVDKSRWQQGNVFSCSVMHEALHNHYTQKSLSLSPG
Fold Increase over WT CD86 ECD (CTLA-4 [5]): 1.3 fold | MFI (CTLA-4 [5]): 4940 | Fold Increase over WT CD86 ECD, Jurkat/IL2 Luciferase Assay (10 nM OKT3 + 50 nM CD86 IgV-Fc) (CD28 [6]): 6.1 fold | Relative luminescence units (RLU), Jurkat/IL2 Luciferase Assay (10 nM OKT3 + 50 nM CD86 IgV-Fc) (CD28 [6]): 800 RLU | Fold Increase over WT CD86 ECD (CD28 [4]): 128 fold | MFI (CD28 [4]): 1570

Second part, the molecule after the results:

MFI (CD28 [1]): 11.9 | Fold Increase over WT CD86 ECD (CTLA-4 [2]): 0.5 fold | MFI (CTLA-4 [2]): 9360
Molecule: variant CD86 ECD-Fc Q25L/H90L/P185S/P224L (ECD SEQ ID NO: 116) (Fc fusion)

binding result (PD-L1): binds | binding result (CD28 [3]): binds
B4: formatted PD-1-CD86 stack, FIG. 14C format (heterodimer SEQ ID NOs 328 + 330) (Fc fusion)
chain 1: B3 chain 1
chain 2: EPKSSDKTHTCPPCPAPEAEGAPSVFLFPPKPKDTLMISRTPEVTCVVVDVSHEDPEVKFNWYVDGVEVHNAKTKPREEQYNSTYRVVSVLTVLHQDWLNGKEYKCKVSNKALPAPIEKTISKAKGQPREPQVCTLPPSREEMTKNQVSLSCAVKGFYPSDIAVEWESNGQPENNYKTTPPVLDSDGSFFLVSKLTVDKSRWQQGNVFSCSVMHEALHNHYTQKSLSLSPGGGGGSGGGGSGGGGSGGGGSAPLKIQAYFNETADLPCQFANSQNLSLSELVVFWQDQENLVLNEVYLGKEKFDSVHSKYMGRTSFDSDSWTLRLHNLQIKDKGLYRCIILHKKPTGMIRIHQMSSELSVLA
notes: Knobs-into-hole heterodimer

MFI (CD28 [4]): 20
B5: variant CD86 IgV-Fc M60K/H90L (IgV SEQ ID NO: 128) (Fc fusion)
chain: B6 chain with L25Q, M60K, R86Q
